IntAct's records for PubMed 15328353

B1: Plasminogen activator inhibitor 1 (Mus musculus), P22777 (parent)
chain: MQMSSALACLILGLVLVSGKGFTLPLRESHTAHQATDFGVKVFQQVVQASKDRNVVFSPYGVSSVLAMLQMTTAGKTRRQIQDAMGFKVNEKGTAHALRQLSKELMGPWNKNEISTADAIFVQRDLELVQGFMPHFFKLFQTMVKQVDFSEVERARFIINDWVERHTKGMINDLLAKGAVDELTRLVLVNALYFSGQWKTPFLEASTHQRLFHKSDGSTVSVPMMAQSNKFNYTEFTTPDGLEYDVVELPYQRDTLSMFIAAPFEKDVHLSALTNILDAELIRQWKGNMTRLPRLLILPKFSLETEVDLRGPLEKLGMPDMFSATLADFTSLSDQEQLSVAQALQKVRIEVNESGTVASSSTAFVISARMAPTEMVIDRSFLFVVRHNPTETILFMGQVMEP
partner: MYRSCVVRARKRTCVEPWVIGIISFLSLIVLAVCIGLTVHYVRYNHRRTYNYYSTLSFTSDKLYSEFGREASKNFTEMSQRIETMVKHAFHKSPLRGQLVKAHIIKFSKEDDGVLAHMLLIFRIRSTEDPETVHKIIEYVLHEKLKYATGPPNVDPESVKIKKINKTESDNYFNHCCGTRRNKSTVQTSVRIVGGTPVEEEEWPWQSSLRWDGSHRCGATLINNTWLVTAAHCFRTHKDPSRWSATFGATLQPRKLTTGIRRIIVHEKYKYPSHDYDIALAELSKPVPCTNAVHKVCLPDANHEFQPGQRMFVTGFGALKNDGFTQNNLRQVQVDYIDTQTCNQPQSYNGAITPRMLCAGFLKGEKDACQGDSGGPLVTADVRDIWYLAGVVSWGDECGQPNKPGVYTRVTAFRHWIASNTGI
B2: Plasma serine protease inhibitor (Mus musculus), P70458 (parent)
chain: MRFFPILCLVLFISHGVASRRHSHSKKKKAKESSVGAVGPPSSKDFAFRLYRALVSESPGQNVFFSPLSVSMSLGMLSLGAGLKTKTQILDGLGLSLQQGQEDKLHKGFQQLLQRFRQPSDGLQLSLGSALFKDPAVHIRDDFLSAMKTLYMSDTFSTNFGNPEIAKKQINNYVAKQTKGKIVDFIKDLDSTHVMIVVNYIFFKAKWQTAFSETNTHKMDFHVTPKRTTQVPMMNREDGYSYYLDQNISCTVVGIPYQGNAIALFILPSEGKMKQVEDGLDERTLRNWLKMFTKRRLDLYLPKFSIEATYKLENVLPKLGIQDVFTTHADLSGITDHTNIKLSEMVHKSMMEVEESGTTAAAITGAIFTFRSARPSSLKIEFTRPFLLTLMEDSHILFVGKVTRP
partner: B1 partner

Variants of: B1
Details: with tm11e_mouse Tmprss11e

| Variant | effect of a mutation on the interaction |
| --- | --- |
| MQMSSALACLILGLVLVSGKGFTLPLRESHTAHQATDFGVKVFQQVVQASKDRNVVFSPYGVSSVLAMLQMTTAGKTRRQIQDAMGFKVNEKGTAHALRQLSKELMGPWNKNEISTADAIFVQRDLELVQGFMPHFFKLFQTMVKQVDFSEVERARFIINDWVERHTKGMINDLLAKGAVDELTRLVLVNALYFSGQWKTPFLEASTHQRLFHKSDGSTVSVPMMAQSNKFNYTEFTTPDGLEYDVVELPYQRDTLSMFIAAPFEKDVHLSALTNILDAELIRQWKGNMTRLPRLLILPKFSLETEVDLRGPLEKLGMPDMFSATLADFTSLSDQEQLSVAQALQKVRIEVNESGRVRSSSTAFVISARMAPTEMVIDRSFLFVVRHNPTETILFMGQVMEP [T356R;A358R] | decreasing interaction |
| MQMSSALACLILGLVLVSGKGFTLPLRESHTAHQATDFGVKVFQQVVQASKDRNVVFSPYGVSSVLAMLQMTTAGKTRRQIQDAMGFKVNEKGTAHALRQLSKELMGPWNKNEISTADAIFVQRDLELVQGFMPHFFKLFQTMVKQVDFSEVERARFIINDWVERHTKGMINDLLAKGAVDELTRLVLVNALYFSGQWKTPFLEASTHQRLFHKSDGSTVSVPMMAQSNKFNYTEFTTPDGLEYDVVELPYQRDTLSMFIAAPFEKDVHLSALTNILDAELIRQWKGNMTRLPRLLILPKFSLETEVDLRGPLEKLGMPDMFSATLADFTSLSDQEQLSVAQALQKVRIEVNESGTVASSSTAFVISAAMAPTEMVIDRSFLFVVRHNPTETILFMGQVMEP [R369A] | decreasing interaction |

Variants of: B2
Details: with tm11e_mouse Tmprss11e

| Variant | effect of a mutation on the interaction |
| --- | --- |
| MRFFPILCLVLFISHGVASRRHSHSKKKKAKESSVGAVGPPSSKDFAFRLYRALVSESPGQNVFFSPLSVSMSLGMLSLGAGLKTKTQILDGLGLSLQQGQEDKLHKGFQQLLQRFRQPSDGLQLSLGSALFKDPAVHIRDDFLSAMKTLYMSDTFSTNFGNPEIAKKQINNYVAKQTKGKIVDFIKDLDSTHVMIVVNYIFFKAKWQTAFSETNTHKMDFHVTPKRTTQVPMMNREDGYSYYLDQNISCTVVGIPYQGNAIALFILPSEGKMKQVEDGLDERTLRNWLKMFTKRRLDLYLPKFSIEATYKLENVLPKLGIQDVFTTHADLSGITDHTNIKLSEMVHKSMMEVEESGTTAAAITGAIFTFRSAAPSSLKIEFTRPFLLTLMEDSHILFVGKVTRP [R374A] | decreasing interaction |
